# Source: the supplement of paper PMC7125110
# ± gives the standard error. For some assays here: Variants at the floor of the assay were thinned out.
# B1: glmS ribozyme (parent)
# chain: AUAAAAGCGCCAGAACUACAGAAAUGUAGUUGACGAGGAGGAGGUUUAUCGAAUUUUCGGCGGAUGCCUCCAAA
# Columns and labels:
# Settings in all cases: with glucosamine-6-phosphate
# [1] = variants of: B1; assay: kcat; higher = faster cleavage; RNA array
# Procedure, shortened: (§1)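 Tiles bearing barcoded ribozyme variants, transcribed in situ by E. coli RNA polymerase on sequenced MiSeq chips, were imaged over ~14 h at 37 °C using a hybridised Cy3 probe. Glucosamine-6-phosphate was supplied at 40 μM to 10 mM in HEPES/KCl/Mg(OAc)2 buffer. kobs came from one- or two-exponential decay fits to normalised per-tile medians, and weighted Michaelis–Menten fits then provided kcat and KM.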
# [2] = variants of: B1; assay: KM; higher = weaker cofactor use; RNA array
# Procedure, shortened: as §1
# [3] = variants of: B1; assay: self-cleavage kobs at 40 uM GlcN6P; higher = faster cleavage; RNA array
# Procedure, shortened: as §1
# [4] = variants of: B1; assay: self-cleavage kobs at 160 uM GlcN6P; higher = faster cleavage; RNA array
# Procedure, shortened: as §1
# [5] = variants of: B1; assay: self-cleavage kobs at 640 uM GlcN6P; higher = faster cleavage; RNA array
# Procedure, shortened: as §1
# [6] = variants of: B1; assay: self-cleavage kobs at 2500 uM GlcN6P; higher = faster cleavage; RNA array
# Procedure, shortened: as §1
# [7] = variants of: B1; assay: self-cleavage kobs at 10000 uM GlcN6P; higher = faster cleavage; RNA array
# Procedure, shortened: as §1
Variant,kcat [1] [s⁻¹],KM [2] [µM],self-cleavage kobs at 40 uM GlcN6P [3] [s⁻¹],self-cleavage kobs at 160 uM GlcN6P [4] [s⁻¹],self-cleavage kobs at 640 uM GlcN6P [5] [s⁻¹],self-cleavage kobs at 2500 uM GlcN6P [6] [s⁻¹],self-cleavage kobs at 10000 uM GlcN6P [7] [s⁻¹]
A39C A42G,0.00493 ± 0.0008,1490 ± 310,0.000141 ± 1.4e-05,0.000376 ± 7.6e-05,0.00152 ± 0.00029,0.00282 ± 0.00046,0.0047 ± 0.00074
A14U U49G A53U U69G,6.87e-05 ± 2.3e-05,–,–,8.99e-05 ± 3.4e-05,–,7.58e-05 ± 2.1e-05,–
G44A U65A,0.000154 ± 9.6e-06,828 ± 240,–,–,6.51e-05 ± 2.8e-05,0.000133 ± 3.6e-05,0.000139 ± 2e-05
G32C C71A,1.79e-05 ± 3.7e-06,–,–,–,–,–,–
G29U A36U,< 1e-05,–,–,–,–,< 1e-05,–
U30A U45A,0.00916 ± 0.0024,1290 ± 500,0.000369 ± 6.4e-05,0.000872 ± 0.00018,0.00285 ± 0.00065,0.00515 ± 0.001,0.0107 ± 0.0021
G43C U45G,0.00237 ± 0.00082,–,8.35e-05 ± 1.2e-05,0.000135 ± 2.3e-05,0.000694 ± 0.00012,0.00109 ± 0.00024,0.00211 ± 0.00027
A15G C34G C68A,2.44e-05 ± 5.8e-06,–,–,–,–,–,–
C34G C67A,1.49e-05 ± 6.7e-06,–,–,< 1e-05,–,–,–
U47A C71G,0.000753 ± 9.5e-05,1130 ± 300,2.61e-05 ± 8.5e-06,0.000142 ± 4.2e-05,0.000227 ± 5.2e-05,0.00055 ± 0.00011,0.000682 ± 9.3e-05
G37A G41A,0.000353 ± 0.00012,–,–,3.21e-05 ± 1.4e-05,3.79e-05 ± 9.7e-06,0.00016 ± 2.5e-05,0.000229 ± 4.8e-05
A42U U65G C68A,2.17e-05 ± 1.1e-05,–,–,< 1e-05,–,–,–
U54A C70U,0.00432 ± 0.00063,78.3 ± 20,0.00148 ± 0.00013,0.00258 ± 0.00056,0.00479 ± 0.0013,0.00404 ± 0.0014,–
G37C C67A,< 1e-05,2800 ± 950,–,< 1e-05,–,–,–
U30C C71U,0.000335 ± 3.4e-05,1530 ± 340,–,4.2e-05 ± 6.8e-06,9.35e-05 ± 1e-05,0.000195 ± 1.6e-05,0.000307 ± 2.3e-05
U56G C67G,0.000876 ± 9.7e-05,1260 ± 220,3.84e-05 ± 5.8e-06,9.74e-05 ± 8.1e-06,0.00028 ± 2.1e-05,0.000582 ± 5.1e-05,0.00081 ± 7.6e-05
G32A A42G A64G,0.00178 ± 0.00063,–,3.12e-05 ± 1.5e-05,–,0.000716 ± 0.00024,–,0.0016 ± 0.00039

Variant,kcat [1] [s⁻¹],KM [2] [µM],self-cleavage kobs at 40 uM GlcN6P [3] [s⁻¹],self-cleavage kobs at 160 uM GlcN6P [4] [s⁻¹],self-cleavage kobs at 640 uM GlcN6P [5] [s⁻¹],self-cleavage kobs at 2500 uM GlcN6P [6] [s⁻¹],self-cleavage kobs at 10000 uM GlcN6P [7] [s⁻¹]
G37C G66A,3.43e-05 ± 7.8e-06,–,< 1e-05,–,–,3.43e-05 ± 1.5e-05,–
G29C C58U,5.79e-05 ± 8.3e-06,–,< 1e-05,–,–,2.68e-05 ± 9.9e-06,4.86e-05 ± 8e-06
G37A G38U,< 1e-05,–,–,< 1e-05,–,–,–
A14C A39C,0.000549 ± 0.00015,4660 ± 2000,–,–,5.77e-05 ± 9.6e-06,0.000254 ± 3.3e-05,0.000346 ± 4.9e-05
U30A C70G,8.36e-05 ± 9.7e-06,–,–,6.81e-05 ± 1.8e-05,6.45e-05 ± 1.5e-05,0.000108 ± 2.6e-05,8.03e-05 ± 1.3e-05
U54G G59A,9.1e-05 ± 6.5e-06,858 ± 300,–,–,–,6.93e-05 ± 2.3e-05,8.23e-05 ± 3e-05
A15U A39C,0.00112 ± 0.00025,1960 ± 980,3.4e-05 ± 6.3e-06,–,0.000287 ± 3.8e-05,0.000499 ± 5.7e-05,0.00102 ± 7.3e-05
C16A A52G,0.000129 ± 7.4e-06,730 ± 180,–,–,6.18e-05 ± 2.3e-05,0.000102 ± 1.9e-05,0.000118 ± 1.9e-05
G44U C67U,0.00551 ± 0.0015,727 ± 310,0.000365 ± 4e-05,0.000837 ± 0.00016,0.00206 ± 0.00029,0.00417 ± 0.00073,0.00691 ± 0.001
G9A G37C,< 1e-05,–,< 1e-05,–,–,–,–
C34G U56G C70U,3.47e-05 ± 8.1e-06,–,–,–,3.21e-05 ± 1.5e-05,4.52e-05 ± 2.2e-05,–
A12U G44C,0.000244 ± 2.8e-05,2040 ± 560,–,–,5.33e-05 ± 1.1e-05,0.000168 ± 2.9e-05,0.000195 ± 2.3e-05
U55G A64U,0.000152 ± 1.9e-05,3480 ± 950,–,–,–,6.75e-05 ± 8.7e-06,0.00011 ± 1.4e-05
G37A G40A,0.000755 ± 0.00012,2830 ± 820,–,3.73e-05 ± 1.3e-05,0.000135 ± 3.7e-05,0.000366 ± 7.6e-05,0.000583 ± 9.3e-05
A33U C70U,0.000127 ± 1.1e-05,2760 ± 730,–,–,3.24e-05 ± 9.8e-06,5.5e-05 ± 8.7e-06,0.0001 ± 6.7e-06
G37C A42G,7.11e-05 ± 9.9e-06,–,–,–,–,4.76e-05 ± 1.3e-05,5.87e-05 ± 1e-05
A64C C68A,< 1e-05,–,< 1e-05,–,–,–,< 1e-05
